B1: Phosphatidylinositol 4-kinase beta (Homo sapiens), Q9UBF8-2 (parent)
chain: MGDTVVEPAPLKPTSEPTSGPPGNNGGSLLSVITEGVGELSVIDPEVAQKACQEVLEKVKLLHGGVAVSSRGTPLELVNGDGVDSEIRCLDDPPAQIREEEDEMGAAVASGTAKGARRRRQNNSAKQSWLLRLFESKLFDISMAISYLYNSKEPGVQAYIGNRLFCFRNEDVDFYLPQLLNMYIHMDEDVGDAIKPYIVHRCRQSINFSLQCALLLGAYSSDMHISTQRHSRGTKLRKLILSDELKPAHRKRELPSLSPAPDTGLSPSKRTHQRSKSDATASISLSSNLKRTASNPKVENEDEPVRLAPEREFIKSLMAIGKRLATLPTKEQKTQRLISELSLLNHKLPARVWLPTAGFDHHVVRVPHTQAVVLNSKDKAPYLIYVEVLECENFDTTSVPARIPENRIRSTRSVENLPECGITHEQRAGSFSTVPNYDNDDEAWSVDDIGELQVELPEVHTNSCDNISQFSVDSITSQESKEPVFIAAGDIRRRLSEQLAHTPTAFKRDPEDPSAVALKEPWQEKVRRIREGSPYGHLPNWRLLSVIVKCGDDLRQELLAFQVLKQLQSIWEQERVPLWIKPYKILVISADSGMIEPVVNAVSIHQVKKQSQLSLLDYFLQEHGSYTTEAFLSAQRNFVQSCAGYCLVCYLLQVKDRHNGNILLDAEGHIIHIDFGFILSSSPRNLGFETSAFKLTTEFVDVMGGLDGDMFNYYKMLMLQGLIAARKHMDKVVQIVEIMQQGSQLPCFHGSSTIRNLKERFHMSMTEEQLQLLVEQMVDGSMRSITTKLYDGFQYLTNGIM

The test covers variants of B1. Conditions: with rb11a_human RAB11A.
For the variant N162A, the “effect of a mutation on the interaction” value is reported as “disrupting interaction strength”.
For G155D, the “effect of a mutation on the interaction” value is on record as “decreasing interaction strength”.
For F165A the value was “disrupting interaction strength”.
With Y159A;N162A, the “effect of a mutation on the interaction” value is recorded as “disrupting interaction strength”.
For the variant Y159A, the “effect of a mutation on the interaction” value is listed as “disrupting interaction strength”.

Source of the values: IntAct's records for PubMed 24876499.
